This series can be described thus: yeast display, Sf9 membrane polyspecificity reagent, FACS + sequencing; frameworks hold sequencing errors. The essentials:
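Galactose induction of a Saccharomyces cerevisiae BJ5465 synthetic nanobody display library ran 36–48 hours. The cells were then stained for 1 hour at 4 °C with 10% biotinylated, detergent-solubilized Sf9 membrane reagent, pulled down on streptavidin microbeads and FACS-sorted into low and high (top ~1%) gates on expression and reagent-binding fluorescence. Labels for polyreactivity follow the gate of origin.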
With “QVQLVESGGGLVQAGGSLRLSCAASGSIFGDYAMGWYRQAPGTDRELVATITWIGGSTYYADSVKGRFTISRDNAKNTVYCQMNSLKPEDTAVYYCAATKYVDVKYYYWGQGTQVTVSS”, the “polyreactivity (PSR sort gate)” value is recorded as “low polyreactivity”.

As to “QVQLVESGGGLVQSGGSLRLSCAASGIIFDSYAMGWYRQAPGKERELVAAISSRGASTYYADSVKGRFTISRDNAKYTVYLQMNSLKPEDTAVYYCNAVYYAYRYGSSYDWGQGTQVTVSS”, the “polyreactivity (PSR sort gate)” value was “high polyreactivity”.

Consider “QVQLVESGGGLVQAGGSLRLSCAASGSIFRYYVMGWYRQAPGKERELVAAISSGGRTYYADSVKGRFTISRDNAKNTVYLQMNSLKPEDTAVYYCAAGEPTRGDYWGQGTQVTVSS”, for which the “polyreactivity (PSR sort gate)” value was “high polyreactivity”.

With “QVQIVESGGGLVQAGGSLRLSCAASGRTVGYNPMGWYRQAPGKETELVAVIRSGGSTYYADSVKGRFTISRDNAQYSVYLQLHSLIPEDSEVYYCAATGLYNVTSPYSYKYDYWGQCTQVTVSS”, the “polyreactivity (PSR sort gate)” value is “low polyreactivity”.

Turning to “QVQLVESGGGLVQAGGSLRLSCAASGRISSVYAMGLYRQAPGKERELVAGITWSDARTYYADSVKGRFTISRDNAKNTVYLQMNSLKPEDTAVYYCAADYYYYERDYWGQGTQVTVSS”, the “polyreactivity (PSR sort gate)” value is listed as “low polyreactivity”.

For the sequence “QVQLVESGGGLVQAGGSLRLRCAASGSIFESNAMGWYRQAPGKETEFVAAIDQNDGSTYYADSVKGRFTISRDNAKNTVYLQMNSLKPDDTAVYYCAARCYVYRLTWGDYWGQGTQVTVSS”, the “polyreactivity (PSR sort gate)” value is on record as “low polyreactivity”.

“QVQLVESGGGLVQAGGSLRLSCAASGRTFYKYVMVWYRQAPGKERELVAAITRSGGRTYYADSVKGRFTISRDNAKNTVYLHMNSLKPEDTAVYYCAAASYSGHGRYDYWGQGTQVTVSS”: the “polyreactivity (PSR sort gate)” value is “high polyreactivity”.

With “QVQLVESGGGLVQAGGSLRLSCAASGFTFDYYAMGWYRQAPGKERELVAAISVSGGITYYADSVKGRFTISRDNAKNTVYLQMNSLKPEDTAVYYCNAVFYYPYPADRRDYWGQGTQVTVSS”, the “polyreactivity (PSR sort gate)” value is “high polyreactivity”.

For the sequence “QVQLVQSGGGLVHAGGSLRLSCAASGRISFYYAMGWYRQAPGKERELVAAISRGGSTYYPDSVKGRFTISRDNAKNTVFLQMNSLKPEDTAVYYCAATYSGVDTPSGYDYWGQGTQVTVSS”, the “polyreactivity (PSR sort gate)” value was “low polyreactivity”.

With “QVQLVESGGGLVQAGGSLRLSCAASGGTFGYYAMGWYRQAPGKERELVAAITSGGSTNYADSVKGRFTISRDNAKNTVYLQMNSLKPEDTAVYYCAARYINRYPKAQPTDRSIYYWGQGTQVTVSS”, the “polyreactivity (PSR sort gate)” value is listed as “high polyreactivity”.

With “QVQLVESGGGLVQAGGSLRLSCAASGIIFSDYAMGWYRQAPGKERELVAAISRNGGSTYYADSVKGRFTISRDNAKNTVYLQMNSLKPEDTAVYYCAATRRYRYNWGQGTQVTVSS”, the “polyreactivity (PSR sort gate)” value is recorded as “high polyreactivity”.

Regarding “QVQLVESGGGLVQAGGSLRLSCAASGRTFRGNAMGWDRQAPVKERELVAAITWGVGSTYYADSVKGRFTISRDNAKNTVYLQMNSLKPEDTAVYYCATRSYRGRDGFGYWGQGTQVTVSS”, the “polyreactivity (PSR sort gate)” value is reported as “high polyreactivity”.

Turning to “QVQLVESGGGLVQAGGSLRLSCAASGRIFRYNAMVWNIQAPGKERELDAAISYRGTRTYYADSVKGRFTISRDNAKNTVYLQMNSLKPEDTAVYYCAKDSGYYTADDYDYWGQVTQVTVSS”, the “polyreactivity (PSR sort gate)” value was “low polyreactivity”.

In the case of “QVQLVESGGGLVQAGGSLRLSCAASGRTLVLYAMGWYRQAPGKERELVAAITWSGDSTYYADSVKGRFTISRDNAKNTVYLQMNSLKPEDTAVYYCAADKSYRRVYYWGQGTQVTVSS”, the “polyreactivity (PSR sort gate)” value is recorded as “low polyreactivity”.

Take “QVQLVESGGGLVQAGGSLRLSCAASGFIFDTYAMGWYRQAPGKERELVAAISWTGTDTYYADSVKGRFTISRDNAKNTVYLQMNSLKPEDTAVYYCATDYGWLYINSIWEYDYWGQGTQVTVSS”: the “polyreactivity (PSR sort gate)” value is recorded as “high polyreactivity”.

With “QVQLVESGGGLVQAGGSLRISCAASGRTFRPYPMGWYRQAPGKDRELVAAIDSSGTSTYYADSVKGRFTISRDNAKNTVYLQMNSLKPEDTAVYYCAKAWPDHWYSRYDYWGQGTQVTVSS”, the “polyreactivity (PSR sort gate)” value was “low polyreactivity”.

“QVQLVESGGGFDQAGGSLRLSCAASGSIFSGYAMGWYRQAPGKETELVAAINWSGGRTYYADSVKGRFTISRDNEKNTVYLQMKSLKPEDTAVYYCAAAGARSIYRMDYWGQGTQVTVSS”: the “polyreactivity (PSR sort gate)” value is listed as “high polyreactivity”.

With “QVQLVESGGGLLQAGGSLRISCAASVSIFYHYAMGWYRQAPGKERELVAAISWRGGSTNYADSVKGRFTISRDNAKNTVYLQMNSLKPEDSAVYYCNAVQRRREYYWGQGTQVTVSS”, the “polyreactivity (PSR sort gate)” value was “high polyreactivity”.

With “QVQLVESGGGLVQAGGSLRLSCAASGITFERNGKGWYRQAPGKEWELVAAIRSGGSTYYADSVKGRFTISRDNAKNTVYLQMNSLKPEDTAVYYCAAVTQGGYTYLGDYWGQGTQVTVSS”, the “polyreactivity (PSR sort gate)” value is “low polyreactivity”.

As for “QVQLVESGGGLVQAGGSLRLSCAASGSTFLANAMGWYRQAPGKEWELVATISSGGSTNYADSVKGRFTISRDNAKNTVYLQMNSLKPEDTAVYYCAAEYWYAWQEYGYWGQGTQVTVSS”, the “polyreactivity (PSR sort gate)” value is reported as “low polyreactivity”.

On to “QVQLVESGGGLVQAGGSLPLSCAASGRTYVSYVMGRYRQAPGKEREFVAAISRSGGNTYYADSVKGRFTISRDTAKNTVYLQMNSLNPEDTAVYYCYVLLQRVYGTAPSFDYWGQGTQVTVSS”, for which the “polyreactivity (PSR sort gate)” value is “high polyreactivity”.

Consider “QVQLVESGGGLVQAGGSLRLTCAASGSTFYHNAMGWYRQAPGKERELVAAITTSGGSTYYADSVKGRFTISRDNAKNTVYLQMNSLKPVDTAVYYCNVYRPYLAPYDYWGQGTQVTVSS”, for which the “polyreactivity (PSR sort gate)” value is reported as “low polyreactivity”.

Take “QVQLVESGGGLVQAGGSLRLSCAASGRIFGFYAMGCYRQAPGKERELVAVITYRDGRTYYADSVKGRFTISRDNEKNTVYLQMNSLKPEDTAVYYCARGYQGRLKYESWGQGTQVTVSS”: the “polyreactivity (PSR sort gate)” value is “low polyreactivity”.

With “QVQLVESGGGLVQAGGSLRLSCAASGFTFIFNAMGWYRQAPGKERELVATISWGGGSTYYADSVKGRFTISRDNAKNTVYLQMNSLKPEDTAVYYCNADGYTLWYEYDYWGQGTQVTVSS”, the “polyreactivity (PSR sort gate)” value is “low polyreactivity”.

Consider “QVQLVESGGGLVQAGGSLRLSCAASGSIFVTNAMGWYRQAPGKEREWVAAISVSGGSTYYADSVKGRFTISRDNAKNTVYLQMNSLKPEDTAVYYCAAPGRLFSLYDYWGQGTQVTVSS”, for which the “polyreactivity (PSR sort gate)” value is “low polyreactivity”.

For “QVQLVESGGGLVQAGGSLRLSCAASGSTFTWYAMGWYRQAPGKERELVAAISGSGGRTFYADSVKGRFTISRDNAKNTVYLQMNSLKPEDTAVYYCNAVRVSIPYIYTMDYWGQGTQVTVSS”, the “polyreactivity (PSR sort gate)” value was “high polyreactivity”.

“QVQLVESGVGLVQSGGSLRLSCAASGFIFRWYAKGWYRQAPGKERELVAAISGGGSSTYYADSVKGRFTISRDNEKNTVYLQMNSLKPEDNAVYYCAAYNTYLGYPYYYWGQGTQVTVSS”: the “polyreactivity (PSR sort gate)” value is “high polyreactivity”.

“QVQLVDSGGGLVQAGGSHRLSCAASGLTFRKYPMGWYRQAPGKERELVATISRNGGSTYYADSVKGRFTISRDNAKNTVYFQMNSLKPEDTAVFYCAADYYNYDYAGYGYWGQVTQVTVSS”: the “polyreactivity (PSR sort gate)” value is given as “high polyreactivity”.

For “QVQLEESGGGLVQAGGSLSVSCAASGSICRNYAMGWYLQAPGKERELVAAISVRGGSTYYADSVKGRFTISRDNAKNTVYLQMHSLKPEDTAGYYCNAVHHDTISDYWGQGTQVTVSS”, the “polyreactivity (PSR sort gate)” value is “high polyreactivity”.

Take “QVQLVESGGGLVQAGGSLRLSCAATGNTFLWYARGWYRQAPGKERELVAAITWSGGRTYYADSVKGRFTISRDNALYTVYLQMHSLKPEDTAVYYFAADYGYFLGGVYFHKVKFDYWGQGTQVTVSS”: the “polyreactivity (PSR sort gate)” value was “high polyreactivity”.

Take “QVQLVESGGGLVQAGGSLRLSCAASGSTFGFNAMGWYRQAPGKERELVAAIDGSAGSTYYADSVKGRFTISRDNAKNTVYLQMNSLKPEDTAVYYCAADIYWFIEYEYWGQGTQVTVSS”: the “polyreactivity (PSR sort gate)” value is “low polyreactivity”.

With “QVQLVESGGGLVQAGGSLRLICAASGLTFLYYTMVWYRQEPGNERELVAAITSGASTNYADSVKGRFTISRDNAKNTVYLQMNSLIPEDTAVYYCAARYVGPFAWYSGYDYWGQGTQVTVSS”, the “polyreactivity (PSR sort gate)” value is “low polyreactivity”.

For the sequence “QVQLVESGGGLVQAGGSLRLSCAASGGIFNYYAMGWYRPAPGKVRELVAAISASGGSTYYADSVKGRFTISRDNAKNTVYLQMNSLIQEDTAVYYCAAGLPYGYGYDYWGQGTQVTVSS”, the “polyreactivity (PSR sort gate)” value is listed as “low polyreactivity”.

“QVQLVESGGGLVQAGGSLRLSCAASGSTFEYNAMGWYRQAPGKERELVASSTNYADSVKGRFTISRDNAKNTVYLQMNSLKPVDTAVYYCAREQGVNRNHDYWGQGTQLTVSS”: the “polyreactivity (PSR sort gate)” value is reported as “low polyreactivity”.

Regarding “QLQLEESLVGLVQAGGSHPLSCAATGITFFTYTIGWYRQAPGKERELVARIRWDGGSTYYADSVKGRFTISRDNAKNTVYLQMNSLKPEDTAVYYCAADYPYSTYDYWGQGTQVTVSS”, the “polyreactivity (PSR sort gate)” value is given as “low polyreactivity”.

“QVQLVESGGGLVQAGGSLRLSCAASGRIFWGYAMGWYRQAPGKERELVAAINRGSSTYYADSVKGRFTISRDNAKNTVYLQMNSLKPEDTAVYYCAVKGYLPYTGIFDYWGQGTQVTVSS”: the “polyreactivity (PSR sort gate)” value is on record as “high polyreactivity”.

On to “QVQLVESGGGLVQAGGSLRLSCAASGSTFQNNAMGWYRQAPGKERELVATISRRGGSTYYADSVKGRFTISRDIAKNTVYLQMNSLKPEDTAVYYCTGRDYWGQGTQVTVSS”, for which the “polyreactivity (PSR sort gate)” value is listed as “high polyreactivity”.

As for “QVQHVESRGGLVQAGGSLRLSCAASGFTFYLNAKGWYRQAPGKVRELVAAISYSDGSTYYADSVKGRFTISRDNAKNTVYLQMNSLIPEDTAVYYCAADTTDPGGAYQLMEYWGQGTQVTVSS”, the “polyreactivity (PSR sort gate)” value was “high polyreactivity”.

“QVQLVESGGGLVHAGGSLRLSCAASGSIFDYYALGWYRQAPGKERDLVASINSSVTGTYYADTVKGRFTISRDNAKNSVYLQMNSLKPEDTAVYYCAVKVYGRSGGYEYWGQGTQVTVSS”: the “polyreactivity (PSR sort gate)” value was “low polyreactivity”.

As for “QVQLVESGGGLVQTGGSLRLSCAASGFIFGPYVMGWYRQAPRKERELFAAISSDGSTTYADSVKGRFTISRDNEKNTVYLQMNSLKPEDTAVYYFAAEDQQNGYDYWGQGTQVTVSS”, the “polyreactivity (PSR sort gate)” value is on record as “low polyreactivity”.

In the case of “QVQLVESGGGLVQAGGSLRLSCAASGRIFANYAMGWYRQAPGKERELVAAISRSGGSTSYADSVKGRFTISRDNAKNTVYLQMNSLKPEDTAVYYCAATRSRYQPVKYGYWGQGTQVTVSS”, the “polyreactivity (PSR sort gate)” value is listed as “high polyreactivity”.

Source of the values: the nanobody polyreactivity screen of Harvey et al. (2022).
